Measured values as given in US20260266848A1, “COMPOSITIONS AND METHODS FOR DIAGNOSING AND TREATING DYSTONIA” (Duke University, priority 2023, published 2026).

B1: MRC2 (protein, UniProt Q9UBG0 31-1479, looked up)
C-type mannose receptor 2: GAPGDAALPEPNVFLIFSHGLQGCLEAQGGQVRVTPACNTSLPAQRWKWVSRNRLFNLGTMQCLGTGWPGTNTTASLGMYECDREALNLRWHCRTLGDQLSLLLGARTSNISKPGTLERGDQTRSGQWRIYGSEEDLCALPYHEVYTIQGNSHGKPCTIPFKYDNQWFHGCTSTGREDGHLWCATTQDYGKDERWGFCPIKSNDCETFWDKDQLTDSCYQFNFQSTLSWREAWASCEQQGADLLSITEIHEQTYINGLLTGYSSTLWIGLNDLDTSGGWQWSDNSPLKYLNWESDQPDNPSEENCGVIRTESSGGWQNRDCSIALPYVCKKKPNATAEPTPPDRWANVKVECEPSWQPFQGHCYRLQAEKRSWQESKKACLRGGGDLVSIHSMAELEFITKQIKQEVEELWIGLNDLKLQMNFEWSDGSLVSFTHWHPFEPNNFRDSLEDCVTIWGPEGRWNDSPCNQSLPSICKKAGQLSQGAAEEDHGCRKGWTWHSPSCYWLGEDQVTYSEARRLCTDHGSQLVTITNRFEQAFVSSLIYNWEGEYFWTALQDLNSTGSFFWLSGDEVMYTHWNRDQPGYSRGGCVALATGSAMGLWEVKNCTSFRARYICRQSLGTPVTPELPGPDPTPSLTGSCPQGWASDTKLRYCYKVFSSERLQDKKSWVQAQGACQELGAQLLSLASYEEEHFVANMLNKIFGESEPEIHEQHWFWIGLNRRDPRGGQSWRWSDGVGFSYHNFDRSRHDDDDIRGCAVLDLASLQWVAMQCDTQLDWICKIPRGTDVREPDDSPQGRREWLRFQEAEYKFFEHHSTWAQAQRICTWFQAELTSVHSQAELDFLSHNLQKFSRAQEQHWWIGLHTSESDGRFRWTDGSIINFISWAPGKPRPVGKDKKCVYMTASREDWGDQRCLTALPYICKRSNVTKETQPPDLPTTALGGCPSDWIQFLNKCFQVQGQEPQSRVKWSEAQFSCEQQEAQLVTITNPLEQAFITASLPNVTFDLWIGLHASQRDFQWVEQEPLMYANWAPGEPSGPSPAPSGNKPTSCAVVLHSPSAHFTGRWDDRSCTEETHGFICQKGTDPSLSPSPAALPPAPGTELSYLNGTFRLLQKPLRWHDALLLCESRNASLAYVPDPYTQAFLTQAARGLRTPLWIGLAGEEGSRRYSWVSEEPLNYVGWQDGEPQQPGGCTYVDVDGAWRTTSCDTKLQGAVCGVSSGPPPPRRISYHGSCPQGLADSAWIPFREHCYSFHMELLLGHKEARQRCQRAGGAVLSILDEMENVFVWEHLQSYEGQSRGAWLGMNFNPKGGTLVWQDNTAVNYSNWGPPGLGPSMLSHNSCYWIQSNSGLWRPGACTNITMGVVCKLPRAEQSSFSPSALPENPAALVVVLMAVLLLLALLTAALILYRRRQSIERGAFEGARYSRSSSSPTEATEKNILVSDMEMNEQQE
B2: LIPG (protein, UniProt Q9Y5X9 21-500, looked up)
Endothelial lipase: SPVPFGPEGRLEDKLHKPKATQTEVKPSVRFNLRTSKDPEHEGCYLSVGHSQPLEDCSFNMTAKTFFIIHGWTMSGIFENWLHKLVSALHTREKDANVVVVDWLPLAHQLYTDAVNNTRVVGHSIARMLDWLQEKDDFSLGNVHLIGYSLGAHVAGYAGNFVKGTVGRITGLDPAGPMFEGADIHKRLSPDDADFVDVLHTYTRSFGLSIGIQMPVGHIDIYPNGGDFQPGCGLNDVLGSIAYGTITEVVKCEHERAVHLFVDSLVNQDKPSFAFQCTDSNRFKKGICLSCRKNRCNSIGYNAKKMRNKRNSKMYLKTRAGMPFRVYHYQMKIHVFSYKNMGEIEPTFYVTLYGTNADSQTLPLEIVERIEQNATNTFLVYTEEDLGDLLKIQLTWEGASQSWYNLWKEFRSYLSQPRNPGRELNIRRIRVKSGETQRKLTFCTEDPENTSISPGRELWFRKCRDGWRMKNETSPTVELP
B3: SLC2A1 (protein, UniProt P11166 1-492, looked up)
Solute carrier family 2, …: MEPSSKKLTGRLMLAVGGAVLGSLQFGYNTGVINAPQKVIEEFYNQTWVHRYGESILPTTLTTLWSLSVAIFSVGGMIGSFSVGLFVNRFGRRNSMLMMNLLAFVSAVLMGFSKLGKSFEMLILGRFIIGVYCGLTTGFVPMYVGEVSPTALRGALGTLHQLGIVVGILIAQVFGLDSIMGNKDLWPLLLSIIFIPALLQCIVLPFCPESPRFLLINRNEENRAKSVLKKLRGTADVTHDLQEMKEESRQMMREKKVTILELFRSPAYRQPILIAVVLQLSQQLSGINAVFYYSTSIFEKAGVQQPVYATIGSGIVNTAFTVVSLFVVERAGRRTLHLIGLAGMAGCAILMTIALALLEQLPWMSYLSIVAIFGFVAFFEVGPGPIPWFIVAELFSQGPRPAAIAVAGFSNWTSNFIVGMCFQYVEQLCGPYVFIIFTVLLVLFFIFTYFKVPETKGRTFDEIASGFRQGGASQSDKTPEELFHPLGADSQV
B4: ACAA1 (protein, UniProt P09110 27-424, looked up)
3-ketoacyl-CoA thiolase, …: LSGAPQASAADVVVVHGRRTAICRAGRGGFKDTTPDELLSAVMTAVLKDVNLRPEQLGDICVGNVLQPGAGAIMARIAQFLSDIPETVPLSTVNRQCSSGLQAVASIAGGIRNGSYDIGMACGVESMSLADRGNPGNITSRLMEKEKARDCLIPMGITSENVAERFGISREKQDTFALASQQKAARAQSKGCFQAEIVPVTTTVHDDKGTKRSITVTQDEGIRPSTTMEGLAKLKPAFKKDGSTTAGNSSQVSDGAAAILLARRSKAEELGLPILGVLRSYAVVGVPPDIMGIGPAYAIPVALQKAGLTVSDVDIFEINEAFASQAAYCVEKLRLPPEKVNPLGGAVALGHPLGCTGARQVITLLNELKRRGKRAYGVVSMCIGTGMGAAAVFEYPGN
B5: WDR26 (protein, UniProt Q9H7D7 1-661, looked up)
WD repeat-containing protein …: MQANGAGGGGGGGGGGGGGGGGGGGQGQTPELACLSAQNGESSPSSSSSAGDLAHANGLLPSAPSAASNNSNSLNVNNGVPGGAAAASSATVAAASATTAASSSLATPELGSSLKKKKRLSQSDEDVIRLIGQHLNGLGLNQTVDLLMQESGCRLEHPSATKFRNHVMEGDWDKAENDLNELKPLVHSPHAIVVRGALEISQTLLGIIVRMKFLLLQQKYLEYLEDGKVLEALQVLRCELTPLKYNTERIHVLSGYLMCSHAEDLRAKAEWEGKGTASRSKLLDKLQTYLPPSVMLPPRRLQTLLRQAVELQRDRCLYHNTKLDNNLDSVSLLIDHVCSRRQFPCYTQQILTEHCNEVWFCKFSNDGTKLATGSKDTTVIIWQVDPDTHLLKLLKTLEGHAYGVSYIAWSPDDNYLVACGPDDCSELWLWNVQTGELRTKMSQSHEDSLTSVAWNPDGKRFVTGGQRGQFYQCDLDGNLLDSWEGVRVQCLWCLSDGKTVLASDTHQRIRGYNFEDLTDRNIVQEDHPIMSFTISKNGRLALLNVATQGVHLWDLQDRVLVRKYQGVTQGFYTIHSCFGGHNEDFIASGSEDHKVYIWHKRSELPIAELTGHTRTVNCVSWNPQIPSMMASASDDGTVRIWGPAPFIDHQNIEEECSSMDS
B6: BZW2 (protein, UniProt Q9Y6E2 1-419, looked up)
eIF5-mimic protein 1: MNKHQKPVLTGQRFKTRKRDEKEKFEPTVFRDTLVQGLNEAGDDLEAVAKFLDSTGSRLDYRRYADTLFDILVAGSMLAPGGTRIDDGDKTKMTNHCVFSANEDHETIRNYAQVFNKLIRRYKYLEKAFEDEMKKLLLFLKAFSETEQTKLAMLSGILLGNGTLPATILTSLFTDSLVKEGIAASFAVKLFKAWMAEKDANSVTSSLRKANLDKRLLELFPVNRQSVDHFAKYFTDAGLKELSDFLRVQQSLGTRKELQKELQERLSQECPIKEVVLYVKEEMKRNDLPETAVIGLLWTCIMNAVEWNKKEELVAEQALKHLKQYAPLLAVFSSQGQSELILLQKVQEYCYDNIHFMKAFQKIVVLFYKADVLSEEAILKWYKEAHVAKGKSVFLDQMKKFVEWLQNAEEESESEGEEN
B7: NDNF (protein, UniProt Q8TB73 20-568, looked up)
Protein NDNF: QKLPTRDEELFQMQIRDKAFFHDSSVIPDGAEISSYLFRDTPKRYFFVVEEDNTPLSVTVTPCDAPLEWKLSLQELPEDRSGEGSGDLEPLEQQKQQIINEEGTELFSYKGNDVEYFISSSSPSGLYQLDLLSTEKDTHFKVYATTTPESDQPYPELPYDPRVDVTSLGRTTVTLAWKPSPTASLLKQPIQYCVVINKEHNFKSLCAVEAKLSADDAFMMAPKPGLDFSPFDFAHFGFPSDNSGKERSFQAKPSPKLGRHVYSRPKVDIQKICIGNKNIFTVSDLKPDTQYYFDVFVVNINSNMSTAYVGTFARTKEEAKQKTVELKDGKITDVFVKRKGAKFLRFAPVSSHQKVTFFIHSCLDAVQIQVRRDGKLLLSQNVEGIQQFQLRGKPKAKYLVRLKGNKKGASMLKILATTRPTKQSFPSLPEDTRIKAFDKLRTCSSATVAWLGTQERNKFCIYKKEVDDNYNEDQKKREQNQCLGPDIRKKSEKVLCKYFHSQNLQKAVTTETIKGLQPGKSYLLDVYVIGHGGHSVKYQSKVVKTRKFC
B8: PSMD12 (protein, UniProt O00232 2-456, looked up)
26S proteasome non-ATPase …: ADGGSERADGRIVKMEVDYSATVDQRLPECAKLAKEGRLQEVIETLLSLEKQTRTASDMVSTSRILVAVVKMCYEAKEWDLLNENIMLLSKRRSQLKQAVAKMVQQCCTYVEEITDLPIKLRLIDTLRMVTEGKIYVEIERARLTKTLATIKEQNGDVKEAASILQELQVETYGSMEKKERVEFILEQMRLCLAVKDYIRTQIISKKINTKFFQEENTEKLKLKYYNLMIQLDQHEGSYLSICKHYRAIYDTPCIQAESEKWQQALKSVVLYVILAPFDNEQSDLVHRISGDKKLEEIPKYKDLLKLFTTMELMRWSTLVEDYGMELRKGSLESPATDVFGSTEEGEKRWKDLKNRVVEHNIRIMAKYYTRITMKRMAQLLDLSVDESEAFLSNLVVNKTIFAKVDRLAGIINFQRPKDPNNLLNDWSQKLNSLMSLVNKTTHLIAKEEMIHNLQ
B9: LRRC59 (protein, UniProt Q96AG4 1-307, looked up)
Leucine-rich …: MTKAGSKGGNLRDKLDGNELDLSLSDLNEVPVKELAALPKATILDLSCNKLTTLPSDFCGLTHLVKLDLSKNKLQQLPADFGRLVNLQHLDLLNNKLVTLPVSFAQLKNLKWLDLKDNPLDPVLAKVAGDCLDEKQCKQCANKVLQHMKAVQADQERERQRRLEVEREAEKKREAKQRAKEAQERELRKREKAEEKERRRKEYDALKAAKREQEKKPKKEANQAPKSKSGSRPRKPPPRKHTRSWAVLKLLLLLLLFGVAGGLVACRVTELQQQPLCTSVNTIYDNAVQGLRRHEILQWVLQTDSQQ
B10: RAP2B (protein, UniProt P61225 1-180, looked up)
Ras-related protein Rap-2b: MREYKVVVLGSGGVGKSALTVQFVTGSFIEKYDPTIEDFYRKEIEVDSSPSVLEILDTAGTEQFASMRDLYIKNGQGFILVYSLVNQQSFQDIKPMRDQIIRVKRYERVPMILVGNKVDLEGEREVSYGEGKALAEEWSCPFMETSAKNKASVDELFAEIVRQMNYAAQPNGDEGCCSAC

The molecules below were run on DYT1 patient plasma derived EVs (assay: Plasma-derived EV proteomics (ExoQuick ULTRA, DIA LC/MS/MS), DYT1 vs Healthy Controls). Details: Hs. Plasma EVs (DYT1/WT); significance of genotype difference.
Design: species or system human
Description: Data was obtained for extracellular vesicles using previously acquired samples. The ExoQuick® ULTRA EV Isolation System was used to fractionate and enrich EVs from plasma. Isolated plasma EV samples were then submitted to proteomic analysis by the Duke Proteomics and Metabolomics Core Facility (DPMCF). At the DPMCF, quantitative (LC/MS/MS) was performed on 500 ng of each sample, using an EvoSep One UPLC system coupled to a Thermo Orbitrap Astral high-resolution accurate mass tandem mass spectrometer (Thermo). Briefly, the sample was eluted directly from an Evotip which was subjected to a low organic wash and then subjected to an analytical separation using a 1.7 μm EvoSep 150 um ID×15 cm endurance (EveoSep) column running an SPD30 gradient from approximately 5 to 30% acetonitrile with 0.1% formic acid with a column temperature of 50 C. Data collection on the Orbitrap Astral mass spectrometer was performed in a data-independent acquisition (DIA) mode of acquisition with a r=240,000 (@m/z 200) full MS scan from m/z 380-980 with a target AGC value of 4e5 ions. Fixed DIA, windows of 4 m/z from m/z 380 to 980 DIA MS/MS scans were acquired in the Astral with a target AGC value of 5e4 and a max fill time of 6 ms. HCD collision energy setting of 27% was used for all MS2 scans.

Row | Molecule | -LogP
1 | B1 | 1.456
2 | B2 | 1.303
3 | B3 | 1.635
4 | B4 | 1.434
5 | B5 | 1.772
6 | B6 | 1.385
7 | B7 | 1.312
8 | B8 | 1.461
9 | B9 | 1.584
10 | B10 | 2.656
